From patent US10561706B2, “Isolated polypeptide and compositions comprising same” (B. G. NEGEV TECHNOLOGIES AND APPLICATIONS LTD., AT …, priority 2015, dated 2020)

Legend:
SOD1^G93A [1] = target: T1, SOD1^G93A (Homo sapiens, UniProt P00441, G94A); test: ThT aggregation assay of SOD1^G93A with SOD1-derived peptides; type: biochemical; settings: for ThT response / amyloid-like aggregation of SOD1^G93A on co-incubation with peptide: SOD1^G93A 50 μM, up to 64 h
T1 construct: 6His (N); made in house; host or cells: E. coli BL21
Method: Prior to the aggregation assay, all mixtures containing protein and/or peptide were filtered through a 0.22 μm Millex-GV (PVDF) syringe filter, 4 mm (Millipore, USA). SOD1^G93A (50 μM) or peptide (600 μM) were incubated in 200 μl of 20 mM […] buffer, pH 7.0, 0.1 M NaCl, 5 mM EDTA, 1 mM TCEP, and 1% DMF in the presence of 50 μM Thioflavin T (Sigma Aldrich, Israel) in a black 96-well plate at 37° C. with continuous shaking (set to fast) using a SpectraMax Paradigm (Molecular Devices) ELISA reader. The fluorescence (Exc. 440 nm; Em. 485 nm) was measured at 5 min intervals.
(§1) The effect of the binding of SOD1-derived peptides to misfolded SOD1 on kinetics of SOD1 aggregation was tested. The time course of SOD1^G93A aggregation was followed by monitoring the fluorescence of a thioflavin T (ThT) probe.

SOD1^G93A [2] = target: T1, SOD1^G93A; test: TEM analysis of SOD1^G93A aggregate morphology; type: biochemical; settings: for morphology of SOD1^G93A aggregates by TEM versus SOD1^G93A alone: co-incubation with peptide, end of aggregation assay (FIG. 4B); for morphology of SOD1^G93A aggregates by TEM: 64 h at 37° C.
Method: Samples for TEM imaging were prepared as follows: at the end of the aggregation assay, 2.5 μl samples (diluted 5-fold) were deposited on a carbon-coated copper 300 mesh. After 1 min, the excess liquid was carefully blotted by a filter paper. Followed 1 min drying at the ambient temperature, 5 μl of 2% uranyl acetate was added. After 1 min, the excess of the salt solution was carefully removed with a filter paper. The imaging was performed using a Tecnai G2 12 BioTWIN (FEI) transmission electron microscope with an acceleration voltage of 120 kV. Depending on the aggregate size, different magnifications were used. The visible features were sensitive to the electron beam exposure, indicating their organic origin.
as §1

SOD1^G93A [3] = target: T1, SOD1^G93A; test: Peptide binding to fluorescently labeled SOD1^G93A by microscale thermophoresis (MST); settings: SOD1^G93A 300 nM, 1.5 h at r.t., peptide 0-100 μM
From the text: (§2) Peptides were synthesized by GL Biochem Ltd. (Shanghai, China). Peptide identity and purity (>90%) was confirmed by MS and HPLC analyses. For microscale thermophoresis (MST) analysis, the proteins (SOD1^WT and SOD1^G93A) were labeled with BLUE fluorescent dye NT-495-NHS (lysine chemistry) using a Monolith NT protein labeling kit Blue-NETS (Nano Temper Technologies, Munchen, Germany) at a protein (monomer):dye ratio of 1:3 as recommended by the manufacturer.
(§3) The assessment of peptide binding to the proteins was carried out using Monolith NT.115 (NanoTemper Technologies, Munchen, Germany). […] The binding data were analyzed by a non-linear regression using a logistic (three parameter) function implemented in Prism6 (GraphPad) program.
(§4) The binding of synthetic peptides to fluorescently labeled SOD1^WT or SOD1^G93A was assessed using a microscale thermophoresis technique (MST). Two overlapping peptides, designated SE-11 (SEQ ID NO: 6) (SOD1 aa. 90-109, […]) and SE-12 (SEQ ID NO: 7) (SOD1 aa. 106-125, […]), inflicted a specific, dose-dependent increase in the fluorescence of the target proteins (FIGS. 3A-D).

SOD1^WT [4] = target: T2, SOD1^WT (Homo sapiens, UniProt P00441); test: Peptide binding to fluorescently labeled SOD1^WT by microscale thermophoresis (MST); settings: SOD1^WT 200 nM, 1.5 h at r.t., peptide 0-100 μM
T2 construct: 6His (N); made in house; host or cells: E. coli BL21
From the text: as §2, §3, §4

SOD1^WT [5] = target: T2, SOD1^WT; test: Immunoprecipitation (B8H10 mAb) analysis of SOD1^WT misfolding; type: biochemical; settings: peptide 600 μM, 4 or 37° C.; effect more prominent at 4° C.
Method: Purified recombinant SOD1^G93A or SOD1^WT proteins […] were incubated for 4 h in 50 mM Tris-HCl buffer, pH 7.4, 150 mM NaCl, 1 mM EDTA, in the presence or absence of peptide SE-12 (SEQ ID NO: 7) (600 μM) at 4 or 37° C. After incubation, 10 μg of SOD1 proteins were transferred into immunoprecipitation (IP) buffer (50 mM Tris-HCl, pH 7.4, 150 mM NaCl, 1 mM EDTA, and 0.5% Nonidet P-40 plus protease inhibitors) and incubated at 4° C. overnight with B8H10 monoclonal antibody (MediMabs) crosslinked to protein G beads (Dynabeads, Invitogen) using dimethyl pimelimidate (Pierce) according to the manufacturer's instructions. The beads were magnetically isolated and washed three times with IP buffer. Samples were eluted by boiling in 2× sample buffer. Both bound and unbound IP fractions were then separated by SDS-PAGE, transferred to a nitrocellulose membrane and probed with goat anti-SOD1 antibody (C-17; Santa Cruz Biotechnology).
To test the function of the exposed ^106LSGDHC^111 epitope on misfolding of other SOD1 molecules, the effect of the SE-12 (SEQ ID NO: 7) peptide on SOD1 misfolding was tested using immunoprecipitation with a mAb (B8H10) that specifically recognizes misfolded SOD1. […] The effect of the peptide was more prominent at 4° C., when the intrinsic rate of SOD1^WT misfolding is low, than at 37° C. […]

[6] = 1:12 SOD1^G93A:peptide molar ratio

T1 sequence (P00441 2-154 G94A): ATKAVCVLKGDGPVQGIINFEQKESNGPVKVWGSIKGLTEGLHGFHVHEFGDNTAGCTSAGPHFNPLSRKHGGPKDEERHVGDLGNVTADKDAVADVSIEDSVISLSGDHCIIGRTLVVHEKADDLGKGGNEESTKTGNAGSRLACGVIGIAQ
T2 sequence (P00441 whole entry): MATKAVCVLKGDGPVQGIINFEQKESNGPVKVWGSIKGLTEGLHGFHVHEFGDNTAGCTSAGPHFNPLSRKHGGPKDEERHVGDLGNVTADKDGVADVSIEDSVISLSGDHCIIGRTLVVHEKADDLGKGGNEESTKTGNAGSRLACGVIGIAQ

| Sequence | morphology of SOD1^G93A aggregates by TEM versus SOD1^G93A alone (SOD1^G93A [2]) | change in fluorescence of labeled SOD1^G93A (peptide binding) (SOD1^G93A [3]) | change in fluorescence of labeled SOD1^WT (peptide binding) (SOD1^WT [4]) | ThT response of SOD1^G93A (SOD1^G93A [1]; low peptide:SOD1 molar ratios, 37° C., continuous shaking) | ThT response of SOD1^G93A (SOD1^G93A [1]; peptide:SOD1 molar ratios higher than 3, compared to SOD1^G93A alone) | ThT response / amyloid-like aggregation of SOD1^G93A on co-incubation with peptide (SOD1^G93A [1]; 37° C., continuous shaking) | morphology of SOD1^G93A aggregates by TEM (SOD1^G93A [2]; [6]) | amount of misfolded SOD1^WT immunoprecipitated by B8H10 (SOD1^WT [5]) | morphology of SOD1^G93A aggregates by TEM (SOD1^G93A [2]; low peptide:SOD1 molar ratio (1:0.2 SOD1^G93A:peptide)) |
| --- | --- | --- | --- | --- | --- | --- | --- | --- | --- |
| IIGRTLVVHEKADD (listed as Homo sapiens) [SE-19, SOD1-derived peptide] | morphology was different |  |  |  |  | formation of amyloid-like (ThT-responsive) aggregates |  |  |  |
| DKDGVADVSIEDSVISLSGD (listed as Homo sapiens) [SE-11, 20-mer peptide, SOD1 aa; 90-109] |  | effect was obtained | only with SOD1^G93A | inhibited the ThT response of SOD1^G93A | significantly enhanced ThT response |  | large spherulites (0.5-1.0 μm diameter) |  | suppressed the formation of characteristic fibril-like aggregates |
| EDSVISLSGDHCIIGRT (listed as Homo sapiens) [SE-21, SOD1-derived peptide] | different morphology (size) |  |  |  |  | did not prevent aggregation |  |  |  |

The next lines start with results.

| morphology of SOD1^G93A aggregates by TEM versus SOD1^G93A alone (SOD1^G93A [2]) | change in fluorescence of labeled SOD1^G93A (peptide binding) (SOD1^G93A [3]) | change in fluorescence of labeled SOD1^WT (peptide binding) (SOD1^WT [4]) | ThT response of SOD1^G93A (SOD1^G93A [1]; low peptide:SOD1 molar ratios, 37° C., continuous shaking) | ThT response of SOD1^G93A (SOD1^G93A [1]; peptide:SOD1 molar ratios higher than 3, compared to SOD1^G93A alone) | Sequence | ThT response / amyloid-like aggregation of SOD1^G93A on co-incubation with peptide (SOD1^G93A [1]; 37° C., continuous shaking) | morphology of SOD1^G93A aggregates by TEM (SOD1^G93A [2]; [6]) | amount of misfolded SOD1^WT immunoprecipitated by B8H10 (SOD1^WT [5]) | morphology of SOD1^G93A aggregates by TEM (SOD1^G93A [2]; low peptide:SOD1 molar ratio (1:0.2 SOD1^G93A:peptide)) |
| --- | --- | --- | --- | --- | --- | --- | --- | --- | --- |
| morphology was different |  |  |  |  | DKDGVADVSIEDSV (listed as Homo sapiens) [SE-20, SOD1-derived peptide] | formation of amyloid-like (ThT-responsive) aggregates |  |  |  |
|  | increase in fluorescence was observed | increase in fluorescence was observed |  |  | LSGDHCIIGRTLVVHEKADD (listed as Homo sapiens) [SE-12, 20-mer peptide, SOD1 aa; 106-125] | inhibited the SOD1^G93A-triggered ThT response and fibril formation in a dose-dependent manner | amorphous aggregates were detected by TEM | significantly increased the amount of accumulated misfolded species |  |
